# Laboratory results taken from the DeepSol protein solubility set.
# Experiment: soluble on expression in E. coli; label from the status in PepcDB or PDB records
row,Sequence,soluble on expression in E. coli
1,MSLKYSSTTADYLVWSDAMNLIRKLAKDENYKISLLIALGCFTGLRISDILSLRWKQILDADEFTVIEKKTDKVRTIRLNPQLQHHIKECYEHINPVGINAPILISQKGTIFTVQRINIILKEVKKKYRLKIKNFSCHSLRKTFGRQVYNMNSDNAELALVKLMELFNHSSVAITKRYLGLRQEEILQTYDCLSF,not soluble
2,MSLLITAGVIALGFNFKRFQNEYDWLTLKPEQKLNVPLVNQLPDLPNGCEVTSLAMLLKYYDINVSKLELSSNIKHVSSFVGNNYRGNPHVGFVGYMSIKNAGWCVYNEPLYNVARKYTKRIRNYTGNDFVQVLKLVSKRHPVVIITTLKFDRVNDMQTWSTKQGKVHVTPSSHACVITGYNKKKGIVYVNDPYGVKNKKVSLKKIEASYNQQGKQALYIEEGHHHHHH,soluble
3,MSLLKCSICINDERITRILIVDGRPICKECKVFLEHPPDKEKIKKELEEILSKVDKAIVAYSGGKDSIVALYLAKEKYSIDVEAVMVDHGFIAPQAIKNAKNVAKYLDVPLTIIKRDYSDIFREALLKAKSPCRKCSRRTMEILRKYALKKGYRYMITGHELPFGHHPYRLMSGGIIQVRILSLMSEEERMKILKKLPVELPELPGYTSNCLILGPALQRFWERHGYSFEHRRIAALVRYGLLNKEKALKKVQKPEVPQWQWELVKKKLKLEDGFEGHHHHHH,soluble
4,MSLLNPVLLPPKVKAYLSQGERFIKWDDETTVASPVILRVDPKGYYLYWTYQSKEMEFLDITSIRDTRFGKFAKMPKSQKLRDVFNMDFPDNSFLLKTLTVVSGPDMVDLTFHNFVSYKENVGKAWAEDVLALVKHPLTANASRSTFLDKILVKLKMQLNSEGKIPVKNFFQMFPADRKRVEAALSACHLPKGKNDAINPEDFPEPVYKSFLMSLCPRPEIDEIFTSYHAKAKPYMTKEHLTKFINQKQRDSRLNSLLFPPARPDQVQGLIDKYEPSGINAQRGQLSPEGMVWFLCGPENSVLAQDKLLLHHDMTQPLNHYFINSSHNTYLTAGQFSGLSSAEMYRQVLLSGCRCVELDCWKGKPPDEEPIITHGFTMTTDIFFKEAIEAIAESAFKTSPYPIILSFENHVDSPRQQAKMAEYCRTIFGDMLLTEPLEKFPLKPGVPLPSPEDLRGKILIKNKKNQFSGPTSSSKDTGGEAEGSSPPSAPAVWAGEEGTELEEEEVEEEEEEESGNLDEEEIKKMQSDEGTAGLEVTAYEEMSSLVNYIQPTKFVSFEFSAQKNRSYVISSFTELKAYDLLSKASVQFVDYNKRQMSRIYPKGTRMDSSNYMPQMFWNAGCQMVALNFQTMDLPMQQNMAVFEFNGQSGYLLKHEFMRRPDKQFNPFSVDRIDVVVATTLSITVISGQFLSERSVRTYVEVELFGLPGDPKRRYRTKLSPSTNSINPVWKEEPFVFEKILMPELASLRVAVMEEGNKFLGHRIIPINALNSGYHHLCLHSESNMPLTMPALFIFLEMKD,soluble
5,MSLLTSNLGYPRIGENREWKKALESFWANDTTEEQLLATMKELRLNHLRVQQEQEVDLIPVGDFTLYDHVLDMAVMFGIIPKRFLQQGDTPTLSTYFAMARGSKNAQACEMTKWYNTNYHYIVPELHDAAPRLTKNAPLEAYLEAKNELGIDGKPVILGPYSFVKLAKGYEEDKLQETIQSLLPLYIQVIQELVDAGARSIQVDEPSLVTSISAREMALVTRIYEQINEAIADAPLFLQTYFDAVTFYEEVVSLPVKGIGLDFVHGGAKNLEALRTFGFPEDKVLAAGIIDGRNIWISNLRERHELVHQLEQHVAKDRLVLQPSCSLLHVPVTTKREEKLDPTLLGVLAFANEKLTELHTLKQLAAGNEAEVKEALEANDDALAALEKSGWRSGAATSHNLENKKRPQSFNERRPLQEEKWQLPLLPTTTIGSFPQTKDVRRTRSLWRKGELSTVEYERTMKSYIEKWINIQEELGLDVLVHGEFERNDMVEFFGEKLDGFAFTANGWVQSYGSRCVKPPIIYGNVSFTEPMTVAETVYAQSLTDKPVKGMLTGPVTILNWSFVRDDLPLTVIAHQIAEALTHEVTALEEAGIEMIQIDEPAIREGLPLKAEDQQEYLDWAVSAFRASCAHVKATTQIHTHMCYSEFHEMIEAIDDLDADVISIETSRSHGEMISAFEKTTYEKGIGLGVYDIHSPRVPSEEEMLNVIRRALTVLPASLFWVNPDCGLKTRAEKETVAALKNMVAAARAAREELKTKAEGHHHHHH,soluble
6,MSLMKITSVDIIDVANDFASATSKWRPVVVKINTDEGISGFGEVGLAYGVGASAGIGMAKDLSAIIIGMDPMNNEAIWEKMLKKTFWGQGGGGIFSAAMSGIDIALWDIKGKAWGVPLYKMLGGKSREKIRTYASQLQFGWGDGSDKDMLTEPEQYAQAALTAVSEGYDAIKVDTVAMDRHGNWNQQNLNGPLTDKILRLGYDRMAAIRDAVGPDVDIIAEMHAFTDTTSAIQFGRMIEELGIFYYEEPVMPLNPAQMKQVADKVNIPLAAGERIYWRWGYRPFLENGSLSVIQPDICTCGGITEVKKICDMAHVYDKTVQIHVCGGPISTAVALHMETAIPNFVIHELHRYALLEPNTQTCKYNYLPKNGMYEVPELPGIGQELTEETMKKSPTITVKEGHHHHHH,soluble
7,MSLMKNMARKNQKAPWEEEEEIIWVSRTELKNDMLALQKLGEELVELKPSALAKFPLPEDLAEAIKDAQRFKNEARRRQLQYIGKLMRHIDPEPLQAALDKLRNKHSQTTALLHKLEQLRDRIVAEGDSAIEVAMEQYPEADRQRLRLLARQASKEKAGNKPPKSSREIFQLLKEAMLAKQEIEEESEDDLDSAEEGHHHHHH,soluble
8,MSLNENLQELIPTKLAAAIANPLFPAVDSQLRSGRHIGQEYLDNFAFLADFQNELDMFYRRYNVELIRAPEGFFYLRPKATTLIARSVLSELEMLVGKVLCYLYLSPERLAQQGIFSVQEVYDELLNLADESKLLKAVNQRSSGSDLDKQKLAEKVRAAVNRLRRLGMIHTVGEQNSGKFTISESVFRFGAEVRSGDDPREAQLRLIRDGEAATPDSLSQEKSAVKNDEEIEDELDEGLGEEEEGHHHHHH,soluble
9,MSLNGQSEYKGKLDYIIVLGAGLRGKHMLGTQYERVKKAAEYVKENPDVKIVVSGGKGNGEDISEAEAMKQYFLNKGFKNDSIIMEDKSKNTFENLRNSKKILEKISNKKEIRVGVVTSSYHITRAKLLGKRVGLKLYAIPAPINKLLLLQSYTREFFAFYKSIIFDRGEGHHHHHH,not soluble
10,MSLNIPLSGIIPPLVTPLLDDDVLDVEGLQRLIEHLIAGGVHALFVLGTTGESQSLSYKLRMEMIKNTCRIAKGRLPVLVCISDTSIVESVNLACLAADHGADAVVSAPPYYFATGQPELIEFYEHLLPQLPLPLFLYNMPTHTKVNFAPATIQRIAENPGVIGFKDSSANTVYFQSVMYAMKDNPDFSMLVGPEEIMAESVLLGAHGGVNGGANMFPELYVSLYNAAKNADMEEVRRLQEKVMQISATIYTVGQHGSSYLKGLKCALSLLGICSDYVAAPFHKFEQRERGKIWKALQNLGVDEGHHHHHH,soluble
11,MSLNKKIIFFDIDGTLLVHNGKESTIPYSTKEALKKLKEKGHNLFICSGRPIRFAIQEFQEMVDGYICCNGTYIVYNGKCIYNKLIDKDTLKYLIKEFCKLGISASFSGAYNGYSYNMSSEKIHQMNRFYKTENPYILDNWNIEEIEANNVDVFFKNNEHMEKCIKYLEHKLIFNTHKPYLSADVSFKNWDKSKGIEYLVKYMKRDMKDTMAFGDGKNDITMLKTVNIGIAMGNAVDEVKNKADMVTDSAADDGIYNALNKLHLIEGHHHHHH,soluble
12,MSLNKKMIFFDIDGTIVDEKTHVIPEGTIAAIKKARSNGHLVFINTGRTFFNVPDSIRQIGFDGYVCGCGTYIHINGQTLLEKSISHKRCVEIVEKLRECKLDALLEGQKDFFFDQREPVSEKTLELKSKFGKRGYDVSKSWDDSDIVFDKFVIWTRKESNLEAFKSHISNDFDYIDREDEEGEFGEIVLKGYSKATGIKFLQDYFNIPIEDCYALGDSLNDLPMLQYVPNSIAMGNSSKGLFDLVAFVTKDIMEDGIEYALKHYNIIEGHHHHHH,soluble
13,MSLNKKVDIRHIFISSQERGKEEAKKLADEIYNRLKNNEDFETLAKQYSDDEKTKESGGVITELRAGFNEAVFDNAVFTAEAGQLLEPIEVARGYEIVYVDKVTDFYRTRDEYAELLTVDKFMQSDAYKEWFEEYKKNYDIEITDPAMKAFRLFREKQYNEAGALYEELYKSEKDAYYIEMACEAYKLAENWAGLIEAGKLAVKENPDFVNYYLYQAEGEFKVGDANKAKELLKEAEKKAGDNTYFLDLIRKMYESQGLAEDVERIDRKFQEISEKLKGEGHHHHHH,soluble
